# Source: US20240100176A1 (Eli Lilly, published 2024)
# T1: human IL-4Rα on cells (human PBMC B cells and CD4+ T cells, Daudi cells, HEK-Blue IL-4/IL-13 cells, myeloid … (human, UniProt P24394 26-825))
# T1 sequence: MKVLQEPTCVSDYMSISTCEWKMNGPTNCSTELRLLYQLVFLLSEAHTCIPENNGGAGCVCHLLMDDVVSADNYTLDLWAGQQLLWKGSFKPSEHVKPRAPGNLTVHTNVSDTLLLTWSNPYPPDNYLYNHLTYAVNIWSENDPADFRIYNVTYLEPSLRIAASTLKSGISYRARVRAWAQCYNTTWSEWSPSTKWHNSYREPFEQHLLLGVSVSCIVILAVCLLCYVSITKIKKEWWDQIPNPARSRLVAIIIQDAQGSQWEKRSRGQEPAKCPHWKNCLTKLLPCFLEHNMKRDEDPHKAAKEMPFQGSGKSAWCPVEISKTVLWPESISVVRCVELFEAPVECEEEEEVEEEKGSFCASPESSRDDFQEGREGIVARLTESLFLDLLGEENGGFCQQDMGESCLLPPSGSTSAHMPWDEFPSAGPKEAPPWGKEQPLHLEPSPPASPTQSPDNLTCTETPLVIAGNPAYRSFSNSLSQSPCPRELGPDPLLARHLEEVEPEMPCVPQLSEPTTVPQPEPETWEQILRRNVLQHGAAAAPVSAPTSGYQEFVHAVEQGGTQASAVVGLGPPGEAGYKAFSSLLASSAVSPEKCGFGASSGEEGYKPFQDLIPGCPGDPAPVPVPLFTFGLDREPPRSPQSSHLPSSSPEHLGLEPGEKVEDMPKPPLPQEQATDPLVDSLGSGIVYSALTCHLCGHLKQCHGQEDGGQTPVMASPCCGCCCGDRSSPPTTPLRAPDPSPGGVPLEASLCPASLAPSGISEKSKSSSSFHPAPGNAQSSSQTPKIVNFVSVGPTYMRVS
# B1: anti-human IL-4Rα antibody Ab1 (antibody, human IgG4 S228P, kappa)
# heavy: QVQLVESGGGLVQPGGSLRLSCVASGFTFSHSSMNWVRQAPGKGLEWVSYISRATGAVYYADSVKGRFTISRDNAKNSLYLQMNSLRDEDTAVYYCAREPVFDYWGQGTLVTVSSASTKGPCVFPLAPCSRSTSESTAALGCLVKDYFPEPVTVSWNSGALTSGVHTFPAVLQSSGLYSLSSVVTVPSSSLGTKTYTCNVDHKPSNTKVDKRVESKYGPPCPPCPAPEFLGGPSVFLFPPKPKDTLMISRTPEVTCVVVDVSQEDPEVKFNWYVDGVEVHNAKTKPREEQFNSTYRVVSVLTVLHQDWLNGKEYKCKVSNKGLPSSIEKTISKAKGQPREPQVYTLPPSREEMTKNQVSLTCLVKGFYPSDICVEWESNGQPENNYKTTPPVLDSDGSFFLYSRLTVDKSRWQQGNVFSCSVMHEALHNHYTQKSLSLSLG
# light: DIQMTQSPSAMSASVGDRVTITCRASQDISNYLAWFQQKPGKVPTRLIYAASSLQSGVPSRFSGSGSGTEFTLTISSLQPEDFATYYCLQWSSYPRTFGQGTKVEIKRTVAAPSVFIFPPSDEQLKSGTASVVCLLNNFYPREAKVQWKVDNALQSGNSQESVTEQDSKDSTYSLSSTLTLSKADYEKHKVYACEVTHQGLSSPVTKSFNRGEC
# notes: human kappa light chain; also called anti-human IL-4Rα Ab1; unconjugated Ab1
# B2: anti-human IL-4Rα Ab1 GC conjugate of Example 1b (n=4) (antibody, human IgG4 S228P, kappa)
# heavy: B1 heavy
# light: B1 light
# modifications: glucocorticoid receptor agonist payload-linker (GC-L, Preparation 8) conjugated to the engineered cysteines at the 124 and 378 position of the heavy chain (EU numbering); n is 4 (average DAR 4.17 by RP-HPLC, 3.85 by TOF MS)
# Key:
# [1] = target: T2, hexahistidine tagged human IL-4Rα ECD L155R (human, UniProt P24394 26-232); experiment: capture ELISA: Ab1 on anti-human IgG Fc, His-tagged receptor at 1 µg/mL, anti-His HRP
# T2 construct: not shown: hexahistidine tag
# T2 sequence (P24394 26-232 L180R): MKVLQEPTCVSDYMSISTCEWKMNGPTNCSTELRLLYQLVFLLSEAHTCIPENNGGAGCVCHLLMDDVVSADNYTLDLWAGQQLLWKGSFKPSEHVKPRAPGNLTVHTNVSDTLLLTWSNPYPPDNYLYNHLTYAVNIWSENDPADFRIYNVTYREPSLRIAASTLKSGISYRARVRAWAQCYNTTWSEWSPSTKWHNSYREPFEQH
# From the text: (§1) Example 2d. […] Briefly, thirty surface amino acid residue substitutions were introduced individually into hexahistidine tagged human IL-4Rα extra cellular domain (ECD) as follows: K2D, E6R, K22D, P26R, T31R, F41A, L42G, L43G, E45R, E52R, G56R, D66R, A71R, Q82G, K87D, E94R, H107A, D108R, P124R, D125R, D143R, R148D, L155R, R160D, S164R, S168R, Q181R, P192R, K195D, or H197G. Each mutant protein having a single amino acid residue substitution as described above was transiently expressed in CHO cells and purified using standard immobilized metal affinity chromatography techniques. […] The plates were then washed 3 times with PBST and the exemplified human IL-4Rα antibody was added to the wells at a final concentration of 1 μg/mL in PBS-casein and incubated for 1 hour at room temperature. The plates were washed 3 times with PBST, the IL-4Rα mutant proteins were serially diluted 5-fold from 1 μg/mL for 3 points. in PBS-casein and added to the plate at 50 μL/well and incubated for 1 hour at room temperature. The plates were washed 3 times with PBST and a 1000-fold dilution of anti-histidine tag antibody HRP conjugate (R&D Systems, Cat. #MAB050H) in PBS-casein was added and incubated for 45 minutes at room temperature. The plates were washed 3 times, TMB substrate (Pierce, Cat. #34028) was added per manufacturer instructions, the reaction was quenched with H₂SO₄, and absorbance was read at 450 nm on an ELISA plate reader.
# [2] = target: T3, hexahistidine tagged human IL-4Rα ECD F41A (human, UniProt P24394 26-232); experiment: as above
# T3 construct: not shown: hexahistidine tag
# From the text: as §1
# [3] = target: T4, hexahistidine tagged human IL-4Rα ECD E6R (human, UniProt P24394 26-232); experiment: as above
# T4 construct: not shown: hexahistidine tag
# T4 sequence (P24394 other isoform, or with tags, fused parts or gaps): as the sequence (P24394 26-232 L180R) above, with E6R, R155L counted along it
# From the text: as §1
# [4] = target: T5, hexahistidine tagged human IL-4Rα ECD P192R (human, UniProt P24394 26-232); experiment: as above
# T5 construct: not shown: hexahistidine tag
# From the text: as §1
# [5] = target: T6, hexahistidine tagged human IL-4Rα ECD L43G (human, UniProt P24394 26-232); experiment: as above
# T6 construct: not shown: hexahistidine tag
# T6 sequence (P24394 26-232 L68G): as the sequence (P24394 26-232 L180R) above, with L43G, R155L counted along it
# From the text: as §1
# [6] = target: T7, hexahistidine tagged human IL-4Rα ECD D143R (human, UniProt P24394 26-232); experiment: as above
# T7 construct: not shown: hexahistidine tag
# T7 sequence (P24394 26-232 D168R): as the sequence (P24394 26-232 L180R) above, with D143R, R155L counted along it
# From the text: as §1
# [7] = target: T8, hexahistidine tagged human IL-4Rα ECD G56R (human, UniProt P24394 26-232); experiment: as above
# T8 construct: not shown: hexahistidine tag
# From the text: as §1
# [8] = target: T9, hexahistidine tagged human IL-4Rα ECD H197G (human, UniProt P24394 26-232); experiment: as above
# T9 construct: not shown: hexahistidine tag
# From the text: as §1
# [9] = target: T10, hexahistidine tagged human IL-4Rα ECD Q82G (human, UniProt P24394 26-232); experiment: as above
# T10 construct: not shown: hexahistidine tag
# T10 sequence (P24394 26-232 Q107G): as the sequence (P24394 26-232 L180R) above, with Q82G, R155L counted along it
# From the text: as §1
# [10] = target: T1, human IL-4Rα on cells (human PBMC B …); experiment: cell-based or functional assay
Binder,ELISA (OD450) [1] [OD450],ELISA (OD450) [2] [OD450],ELISA (OD450) [3] [OD450],ELISA (OD450) [4] [OD450],ELISA (OD450) [5] [OD450],ELISA (OD450) [6] [OD450],ELISA (OD450) [7] [OD450],ELISA (OD450) [8] [OD450],ELISA (OD450) [9] [OD450],"Inhibition of IL-4 induced B cell proliferation, IC50 [10] [nM]"
B1,1.78,1.76,2.25,1.94,1.7,1.75,1.73,1.85,1.74,
B2,,,,,,,,,,1.41
